Data on eleven sequences can be found in the supplement of paper PMC5998384.

In data set [1] the test system is HeLa Kyoto. Kind of data set: melting temperature (median over replicates), in situ; higher = more thermally stable.
In data set [2] the test system is HeLa Kyoto. The experiment in a line: solubility change mitosis vs G1/S (difference of NP-40 vs SDS log2 ratios) (log2 ratio difference); higher = more soluble in mitosis.
In data set [3] the test system is HeLa Kyoto. The experiment in a line: thermal stability score vs G1/S (z-score of summed log2 fold changes over temperatures); higher = more thermally stable than in G1/S.
The test system of data set [4] is HeLa Kyoto. Kind of data set: solubility in G1/S (NP-40 vs SDS abundance) (log2 ratio); higher = more soluble. Conditions: cell cycle stage: G1/S.
[5] abbreviates: cell cycle stage: early G1 (4.5 h after nocodazole release).
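Throughout, for melting temperature (median over replicates), in situ: HeLa Kyoto cells synchronized by double thymidine or nocodazole block, proteins quantified by TMT10plex mass spectrometry, three independent biological replicates.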
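Throughout, for solubility change mitosis vs G1/S (difference of NP-40 vs SDS log2 ratios): synchronized HeLa Kyoto cells (double thymidine block for G1/S, nocodazole release for mitosis), protein amounts in NP-40 versus SDS lysates quantified by mass spectrometry, three biological replicates.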
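Throughout, for solubility in G1/S (NP-40 vs SDS abundance): HeLa Kyoto cells arrested at G1/S by double thymidine block, proteins quantified by TMT10plex mass spectrometry in mild NP-40 versus SDS extracts, three biological replicates.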
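Throughout, for thermal stability score vs G1/S (z-score of summed log2 fold changes over temperatures): synchronized HeLa Kyoto cells, proteins quantified by TMT10plex mass spectrometry, three biological replicates, mitosis taken 0.5 h after nocodazole release, G1/S directly after double thymidine block.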

Regarding “MAAPAVSGLSRQVRCFSTSVVRPFAKLVRPPVQVYGIEGRYATALYSAASKQNKLEQVEKELLRVAQILKEPKVAASVLNPYVKRSIKVKSLNDITAKERFSPLTTNLINLLAENGRLSNTQGVVSAFSTMMSVHRGEVPCTVTSASPLEEATLSELKTVLKSFLSQGQVLKLEAKTDPSILGGMIVRIGEKYVDMSVKTKIQKLGRAMREIV [ATP5O]”, the results for the melting temperature in data set [1] (cell cycle stage: G1/S) and in data set [1] (cell cycle stage: mitosis) were 53.4 °C and 53.2 °C, respectively. Besides, the “solubility change mitosis (log2)” value in data set [2] amounted to 0.116. Moreover, the thermal stability score is -2.17 in data set [3] (setting [5]) and -2.27 in data set [3] (cell cycle stage: mitosis). Moreover, in data set [4], the “solubility in G1/S (log2)” value worked out at 0.365.
In the case of “MAAPGGRGRSLSGLLPAQTSLEYALLDAVTQQEKDSLVYQYLQKVDGWEQDLSVPEFPEGLEWLNTEEPISVYKDLCGKIVVLDFFTYCCINCIHLLPDLHALEHTYSDKDGLLIIGVHSAKFPNEKVLDNIKSAVLRYNITHPMVNDADASLWQELEVSCWPTLVILGPRGNMLFSLIGEGHKDKLFLYTSIALKYYKDRGQIRDNKIGIKLYKDSLPPSPLLFPGKVTVDQVTDRLVIADTGHHRILVVWKNGQIQYSIGGPNPGRKDGIFSESTFNSPQGVAIMNNIIYVADTENHLIRKIDLEAEKVSTVAGIGIQGTDKEGGAKGEQQPISSPWDVVFGTSGSEVQRGDILWIAMAGTHQIWALLLDSGKLPKKNELTKGTCLRFAGSGNEENRNNAYPHKAGFAQPSGLSLASEDPWSCLFVADSESSTVRTVSLKDGAVKHLVGGERDPMNLFAFGDVDGVGINAKLQHPLGVTWDKKRNLLYVADSYNHKIKVVDPKTKNCTTLAGTGDTNNVTSSSFTESTFNEPGGLCIGENGELLYVADTNNHQIKVMDLETKMVSVLPIFRSENAVVDGPFLVEKQKTLPKLPKSAPSIRLSPVTACAGQTLQFKLRLDLPSGSKLTEGVSSCWFLTAEGNEWLLQGQIAAGDIENISSQPTISLQIPDDCLSLEAIVSVSVFLYYCSADSSACMMKAILFSQPLQITDTQQGCIAPVELRYVF [NHLRC2]”, the melting temperature in data set [1] (cell cycle stage: G1/S) worked out at 52 °C; in data set [1] (cell cycle stage: mitosis), 52.1 °C. Moreover, the “solubility change mitosis (log2)” value in data set [2] was -0.199. Further, the thermal stability score is 0.332 in data set [3] (setting [5]) and -0.145 in data set [3] (cell cycle stage: mitosis). Further, the “solubility in G1/S (log2)” value in data set [4] came to 0.0639.
On to “MAAPLELSCWGGGWGLPSVHSESLVVMAYAKFSGAPLKVNVIDNTWRGSRGDVPILTTEDDMVSQPAKILNFLRKQKYNADYELSAKQGADTLAYIALLEEKLLPAVLHTFWVESDNYFTVTKPWFASQIPFPLSLILPGRMSKGALNRILLTRGQPPLYHLREVEAQIYRDAKECLNLLSNRLGTSQFFFGDTPSTLDAYVFGFLAPLYKVRFPKVQLQEHLKQLSNLCRFCDDILSSYFRLSLGGISPAGQETVDANLQKLTQLVNKESNLIEKMDDNLRQSPQLPPRKLPTLKLTPAEEENNSFQRLSP [MTX3]”, for which the melting temperature in data set [1] (cell cycle stage: G1/S) turned out to be 51.4 °C; in data set [1] (cell cycle stage: mitosis), 53 °C. For the same sequence, the “solubility change mitosis (log2)” value in data set [2] amounted to 0.0458. Moreover, the thermal stability score in data set [3] (setting [5]) was -1.88; in data set [3] (cell cycle stage: mitosis), -1.18. Also, in data set [4], the “solubility in G1/S (log2)” value came to 0.0969.
As for “MAAPMLRWGCRGRRWAFARVDGGSCHRRGAPTGSTSNQIRGESSVAQQPLHTAQKTRKGEHKWAAVVGLEIHAQISSNSKLFSGSQVRFSAPPNSLVSFFDASLPGTLPVLNRRCVEAAVMTGLALNCHINKKSLFDRKHYFYADLPAGYQITQQRLPIAVNGSLIYGVCAGKKQSQVIPKTVRIKQIQLEQDSGKSLHDNLRSQTLIDLNRAGVGLLEVVLEPDMSCGEEAATAVRELQLILQALGTSQANMAEGQLRVDANISVHHPGEPLGVRTEVKNLNSIRFLAKAIDYEIQRQINELENGGEILNETRSFHHKLGCTMSMRDKEGKQDYRFMPEPNLPPLVLYDATSLPAGADPQQVINIDQIRETLPELPSVTREKLVQQYGMLLEHSFTLLNEVGLLEFFQNVIKETRAEPKKVTSWVLNTFLGYLKQQNLAVSESPVTPSALAELLDLLDSRTISSSAAKQVFEELWKREGKTPGQIVSEKQLELMQDQGALEQLCHSVMEAHPQVVMDVKNRNPRAINKLIGLVRKATQSRADPVMIKEILEKKLSL [GATB]”, the melting temperature was 48.3 °C in data set [1] (cell cycle stage: G1/S) and 48.7 °C in data set [1] (cell cycle stage: mitosis). Further, the “solubility change mitosis (log2)” value in data set [2] is -0.154. For the same sequence, the thermal stability score was -0.148 in data set [3] (setting [5]) and 0.829 in data set [3] (cell cycle stage: mitosis). Besides, the “solubility in G1/S (log2)” value in data set [4] worked out at 0.473.
As to “MAAPPARADADPSPTSPPTARDTPGRQAEKSETACEDRSNAESLDRLLPPVGTGRSPRKRTTSQCKSEPPLLRTSKRTIYTAGRPPWYNEHGTQSKEAFAIGLGGGSASGKTTVARMIIEALDVPWVVLLSMDSFYKVLTEQQQEQAAHNNFNFDHPDAFDFDLIISTLKKLKQGKSVKVPIYDFTTHSRKKDWKTLYGANVIIFEGIMAFADKTLLELLDMKIFVDTDSDIRLVRRLRRDISERGRDIEGVIKQYNKFVKPSFDQYIQPTMRLADIVVPRGSGNTVAIDLIVQHVHSQLEERELSVRAALASAHQCHPLPRTLSVLKSTPQVRGMHTIIRDKETSRDEFIFYSKRLMRLLIEHALSFLPFQDCVVQTPQGQDYAGKCYAGKQITGVSILRAGETMEPALRAVCKDVRIGTILIQTNQLTGEPELHYLRLPKDISDDHVILMDCTVSTGAAAMMAVRVLLDHDVPEDKIFLLSLLMAEMGVHSVAYAFPRVRIITTAVDKRVNDLFRIIPGIGNFGDRYFGTDAVPDGSDEEEVAYTG [UCKL1]”, the melting temperature in data set [1] (cell cycle stage: G1/S) and in data set [1] (cell cycle stage: mitosis) was 51.6 °C in each case. Further, the “solubility change mitosis (log2)” value in data set [2] was found to be 0.0371. In addition, the thermal stability score in data set [3] (setting [5]) is -1.2; in data set [3] (cell cycle stage: mitosis), -0.843. Also, the “solubility in G1/S (log2)” value in data set [4] was -0.0507.
In the case of “MAAPPEPGEPEERKSLKLLGFLDVENTPCARHSILYGSLGSVVAGFGHFLFTSRIRRSCDVGVGGFILVTLGCWFHCRYNYAKQRIQERIAREEIKKKILYEGTHLDPERKHNGSSSN [COX20]”, the melting temperature in data set [1] (cell cycle stage: G1/S) was found to be 55.3 °C; in data set [1] (cell cycle stage: mitosis), 58 °C. For the same sequence, the “solubility change mitosis (log2)” value in data set [2] was -0.0179. Moreover, the thermal stability score in data set [3] (setting [5]) is -0.338; in data set [3] (cell cycle stage: mitosis) it was -1.53. In data set [4], the “solubility in G1/S (log2)” value worked out at 0.0379.
For “MAAPRVFPLSCAVQQYAWGKMGSNSEVARLLASSDPLAQIAEDKPYAELWMGTHPRGDAKILDNRISQKTLSQWIAENQDSLGSKVKDTFNGNLPFLFKVLSVETPLSIQAHPNKELAEKLHLQAPQHYPDANHKPEMAIALTPFQGLCGFRPVEEIVTFLKKVPEFQFLIGDEAATHLKQTMSHDSQAVASSLQSCFSHLMKSEKKVVVEQLNLLVKRISQQAAAGNNMEDIFGELLLQLHQQYPGDIGCFAIYFLNLLTLKPGEAMFLEANVPHAYLKGDCVECMACSDNTVRAGLTPKFIDVPTLCEMLSYTPSSSKDRLFLPTRSQEDPYLSIYDPPVPDFTIMKTEVPGSVTEYKVLALDSASILLMVQGTVIASTPTTQTPIPLQRGGVLFIGANESVSLKLTEPKDLLIFRACCLL [MPI]”, the results for the melting temperature in data set [1] (cell cycle stage: G1/S) and in data set [1] (cell cycle stage: mitosis) were 50.7 °C and 50.4 °C, respectively. In addition, in data set [2], the “solubility change mitosis (log2)” value is -0.154. In addition, the values for the thermal stability score in data set [3] (setting [5]) and in data set [3] (cell cycle stage: mitosis) were -0.708 and -0.365, respectively. In addition, the “solubility in G1/S (log2)” value in data set [4] turned out to be 0.389.
On to “MAAPSGGVNCEEFAEFQELLKVMRTIDDRIVHELNTTVPTASFAGKIDASQTCKQLYESLMAAHASRDRVIKNCIAQTSAVVKNLREEREKNLDDLTLLKQLRKEQTKLKWMQSELNVEEVVNDRSWKVFNERCRIHFKPPKNE [CCDC58]”, for which the melting temperature in data set [1] (cell cycle stage: G1/S) turned out to be 53.3 °C; in data set [1] (cell cycle stage: mitosis), 52.6 °C. Also, the “solubility change mitosis (log2)” value in data set [2] was found to be 0.251. In addition, the thermal stability score in data set [3] (setting [5]) is -0.935; in data set [3] (cell cycle stage: mitosis) it was -0.43. Also, the “solubility in G1/S (log2)” value in data set [4] was 0.6.
Turning to “MAAPSWRGARLVQSVLRVWQVGPHVARERVIPFSSLLGFQRRCVSCVAGSAFSGPRLASASRSNGQGSALDHFLGFSQPDSSVTPCVPAVSMNRDEQDVLLVHHPDMPENSRVLRVVLLGAPNAGKSTLSNQLLGRKVFPVSRKVHTTRCQALGVITEKETQVILLDTPGIISPGKQKRHHLELSLLEDPWKSMESADLVVVLVDVSDKWTRNQLSPQLLRCLTKYSQIPSVLVMNKVDCLKQKSVLLELTAALTEGVVNGKKLKMRQAFHSHPGTHCPSPAVKDPNTQSVGNPQRIGWPHFKEIFMLSALSQEDVKTLKQYLLTQAQPGPWEYHSAVLTSQTPEEICANIIREKLLEHLPQEVPYNVQQKTAVWEEGPGGELVIQQKLLVPKESYVKLLIGPKGHVISQIAQEAGHDLMDIFLCDVDIRLSVKLLK [ERAL1]”, the melting temperature in data set [1] (cell cycle stage: G1/S) turned out to be 51.2 °C; in data set [1] (cell cycle stage: mitosis), 50.9 °C. Further, in data set [2], the “solubility change mitosis (log2)” value was -0.061. Also, the thermal stability score in data set [3] (setting [5]) is -1.87; in data set [3] (cell cycle stage: mitosis), -1.48. Also, the “solubility in G1/S (log2)” value in data set [4] worked out at 0.33.
Take “MAAQKINEGLEHLAKAEKYLKTGFLKWKPDYDSAASEYGKAAVAFKNAKQFEQAKDACLREAVAHENNRALFHAAKAYEQAGMMLKEMQKLPEAVQLIEKASMMYLENGTPDTAAMALERAGKLIENVDPEKAVQLYQQTANVFENEERLRQAVELLGKASRLLVRGRRFDEAALSIQKEKNIYKEIENYPTCYKKTIAQVLVHLHRNDYVAAERCVRESYSIPGFNGSEDCAALEQLLEGYDQQDQDQVSDVCNSPLFKYMDNDYAKLGLSLVVPGGGIKKKSPATPQAKPDGVTATAADEEEDEYSGGLC [NAPG]”: the figures for the melting temperature in data set [1] (cell cycle stage: G1/S) and in data set [1] (cell cycle stage: mitosis) were 49.6 °C and 49.9 °C, respectively. Besides, the “solubility change mitosis (log2)” value in data set [2] was determined as 0.178. For the same sequence, the thermal stability score is -0.512 in data set [3] (setting [5]) and 0.117 in data set [3] (cell cycle stage: mitosis). The “solubility in G1/S (log2)” value in data set [4] amounted to 0.528.
Turning to “MAARLVSRCGAVRAAPHSGPLVSWRRWSGASTDTVYDVVVSGGGLVGAAMACALGYDIHFHDKKILLLEAGPKKVLEKLSETYSNRVSSISPGSATLLSSFGAWDHICNMRYRAFRRMQVWDACSEALIMFDKDNLDDMGYIVENDVIMHALTKQLEAVSDRVTVLYRSKAIRYTWPCPFPMADSSPWVHITLGDGSTFQTKLLIGADGHNSGVRQAVGIQNVSWNYDQSAVVATLHLSEATENNVAWQRFLPSGPIALLPLSDTLSSLVWSTSHEHAAELVSMDEEKFVDAVNSAFWSDADHTDFIDTAGAMLQYAVSLLKPTKVSARQLPPSVARVDAKSRVLFPLGLGHAAEYVRPRVALIGDAAHRVHPLAGQGVNMGFGDISSLAHHLSTAAFNGKDLGSVSHLTGYETERQRHNTALLAATDLLKRLYSTSASPLVLLRTWGLQATNAVSPLKEQIMAFASK [COQ6]”, the melting temperature worked out at 54.8 °C in data set [1] (cell cycle stage: G1/S) and 55.1 °C in data set [1] (cell cycle stage: mitosis). The “solubility change mitosis (log2)” value in data set [2] is -0.0137. Further, the thermal stability score in data set [3] (setting [5]) was 1.7; in data set [3] (cell cycle stage: mitosis), 2.05. In addition, in data set [4], the “solubility in G1/S (log2)” value was -0.0254.
